Measurements reported in patent US20100055095A1 (Genentech, published 2010).

Tests used:
Assay in all cases: co-immunoprecipitation from transfected Cos 7 cells on HA beads, western blot with anti-HA and anti-p110α
[1] = biological target: T1, p110α, wild-type (protein encoded by PIK3CA, catalytic subunit of PI3K) (human, UniProt P42336 1-1068)
T1 construct: also called p110alpha WT
Text: (§1) Proteins were immunoprecipitated using HA beads, separated by SDS-PAGE, transferred to nitrocellulose, and detected using anti-HA and anti-p110α antibodies. […] In the header row of Table 2, the terms “p110alpha E545K” and “p110alpha H1047R” refer to two known mutational “hot spots” in p110α which result in constitutively active p110α.

p110α E545K = biological target: T2, p110α E545K (human, UniProt P42336 1-1068)
T2 construct: Known hot-spot mutant, constitutively active p110α; also called p110alpha E545K
T2 sequence (P42336 whole entry E545K): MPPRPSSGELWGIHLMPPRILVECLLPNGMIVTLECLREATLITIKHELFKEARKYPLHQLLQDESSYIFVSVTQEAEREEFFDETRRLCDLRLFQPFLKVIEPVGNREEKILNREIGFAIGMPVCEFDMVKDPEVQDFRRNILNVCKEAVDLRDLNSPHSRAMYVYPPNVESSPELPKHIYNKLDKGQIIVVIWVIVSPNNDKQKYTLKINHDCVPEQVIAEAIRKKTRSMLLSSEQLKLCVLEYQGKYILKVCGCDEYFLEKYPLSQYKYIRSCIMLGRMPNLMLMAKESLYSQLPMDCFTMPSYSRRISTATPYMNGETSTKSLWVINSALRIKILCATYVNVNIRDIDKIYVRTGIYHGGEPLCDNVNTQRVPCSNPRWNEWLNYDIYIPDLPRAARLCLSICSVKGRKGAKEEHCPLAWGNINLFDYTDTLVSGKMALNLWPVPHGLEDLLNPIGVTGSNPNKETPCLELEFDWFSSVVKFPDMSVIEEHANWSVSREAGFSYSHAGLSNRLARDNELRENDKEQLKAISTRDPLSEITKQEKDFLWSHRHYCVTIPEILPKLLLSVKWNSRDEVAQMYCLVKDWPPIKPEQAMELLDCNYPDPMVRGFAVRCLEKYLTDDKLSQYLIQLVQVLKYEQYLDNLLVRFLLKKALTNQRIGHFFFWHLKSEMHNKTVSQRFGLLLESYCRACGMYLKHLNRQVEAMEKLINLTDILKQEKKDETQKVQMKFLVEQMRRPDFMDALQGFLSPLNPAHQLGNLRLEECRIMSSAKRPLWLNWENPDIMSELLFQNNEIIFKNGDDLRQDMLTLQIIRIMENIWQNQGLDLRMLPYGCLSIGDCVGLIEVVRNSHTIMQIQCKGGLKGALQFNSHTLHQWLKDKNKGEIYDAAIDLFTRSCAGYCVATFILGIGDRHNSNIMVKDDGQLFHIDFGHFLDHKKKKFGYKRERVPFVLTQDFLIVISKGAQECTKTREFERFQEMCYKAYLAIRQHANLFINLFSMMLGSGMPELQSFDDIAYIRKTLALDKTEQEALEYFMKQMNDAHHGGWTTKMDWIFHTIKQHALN
Text: as §1

p110α H1047R = biological target: T3, p110α H1047R (human, UniProt P42336 1-1068)
T3 construct: Known hot-spot mutant, constitutively active p110α; also called p110alpha H1047R
T3 sequence (P42336 whole entry H1047R): as the sequence (P42336 whole entry E545K) above, with K545E, H1047R counted along it
Text: as §1

Measured: binding result

T1 sequence (P42336 whole entry): as the sequence (P42336 whole entry E545K) above, with K545E counted along it

B1: N-terminally HA-tagged p85α R162stop (other)
chain: MSAEGYQYRALYDYKKEREEDIDLHLGDILTVNKGSLVALGFSDGQEARPEEIGWLNGYNETTGERGDFPGTYVEYIGRKKISPPTPKPRPPRPLPVAPGSSKTEADVEQQALTLPDLAEQFAPPDIAPPLLIKLVEAIEKKGLECSTLYRTQSSSNLAEL
notes: Stop codon at R162; also called p85 R162stop; 162R>O; not shown: N-terminal HA tag
no binding: [1] | p110α E545K | p110α H1047R
